Data as given in patent publication US20250108090A1 (published 2025).
Residue numbers refer to the chain shown, from its start.

B1: mouse apoptosis inhibitor of macrophage (AIM), wild-type recombinant (other, UniProt Q9QWK4 22-352, looked up)
chain: ESPTKVQLVGGAHRCEGRVEVEHNGQWGTVCDDGWDRRDVAVVCRELNCGAVIQTPRGASYQPPASEQRVLIQGVDCNGTEDTLAQCELNYDVFDCSHEEDAGAQCENPDSDLLFIPEDVRLVDGPGHCQGRVEVLHQSQWSTVCKAGWNLQVSKVVCRQLGCGRALLTYGSCNKNTQGKGPIWMGKMSCSGQEANLRSCLLSRLENNCTHGEDTWMECEDPFELKLVGGDTPCSGRLEVLHKGSWGSVCDDNWGEKEDQVVCKQLGCGKSLHPSPKTRKIYGPGAGRIWLDDVNCSGKEQSLEFCRHRLWGYHDCTHKEDVEVICTDFDV
notes: mature; also called rAIM; mouse AIM
B2: mouse S100A9 (2065-S9-050, R&D Systems) (ligand, UniProt P31725 1-113, looked up)
chain: MANKAPSQMERSITTIIDTFHQYSRKEGHPDTLSKKEFRQMVEAQLATFMKKEKRNEALINDIMEDLDTNQDNQLSFEECMMLMAKLIFACHEKLHENNPRGHGHSHGKGCGK
B3: mouse PRDX1-His (RPF757Mu01, USCN) (ligand, UniProt P35700 1-199, looked up)
chain: MSSGNAKIGYPAPNFKATAVMPDGQFKDISLSEYKGKYVVFFFYPLDFTFVCPTEIIAFSDRADEFKKLNCQVIGASVDSHFCHLAWINTPKKQGGLGPMNIPLISDPKRTIAQDYGVLKADEGISFRGLFIIDDKGILRQITINDLPVGRSVDEIIRLVQAFQFTDKHGEVCPAGWKPGSDTIKPDVNKSKEYFSKQK
notes: also called RPDX; not shown: His tag
B4: mouse PRDX1 with a HA tag (generated in house) (ligand, UniProt P35700 1-199, looked up)
chain: B3 chain
notes: also called peroxiredoxin 1; mouse PRDXs with a HA tag; not shown: HA tag
B5: human HMGB1 (1690-HMB-050, R&D Systems) (ligand, UniProt P09429 1-215, looked up)
chain: MGKGDPKKPRGKMSSYAFFVQTCREEHKKKHPDASVNFSEFSKKCSERWKTMSAKEKGKFEDMAKADKARYEREMKTYIPPKGETKKKFKDPNAPKRPPSAFFLFCSEYRPKIKGEHPGLSIGDVAKKLGEMWNNTAADDKQPYEKKAAKLKEKYEKDIAAYRAKGKPDAAKKGVVKAEKSKKKKEEEEDEEDEEDEEEEEDEEDEDEEEDDDDE
notes: also called high-mobility-group-box 1
B6: mouse S100A8/A9 (8916-S8-050, R&D Systems) (ligand)
chain 1: MPSELEKALSNLIDVYHNYSNIQGNHHALYKNDFKKMVTTECPQFVQNINIENLFRELDINSDNAINFEEFLAMVIKVGVASHKDSHKE
chain 2: B2 chain
notes: Complex of S100A8 and S100A9 as bought; also called S100A8/9
B7: mouse S100A8 (9877-S8-050, R&D Systems) (ligand, UniProt P27005 1-89, looked up)
chain: B6 chain 1
B8: mouse PRDX6 with a HA tag (generated in house) (ligand, UniProt O08709 1-224, looked up)
chain: MPGGLLLGDEAPNFEANTTIGRIRFHDFLGDSWGILFSHPRDFTPVCTTELGRAAKLAPEFAKRNVKLIALSIDSVEDHLAWSKDINAYNGETPTEKLPFPIIDDKGRDLAILLGMLDPVEKDDNNMPVTARVVFIFGPDKKLKLSILYPATTGRNFDEILRVVDSLQLTGTKPVATPVDWKKGESVMVVPTLSEEEAKQCFPKGVFTKELPSGKKYLRYTPQP
notes: also called PRDXs; not shown: HA tag
B9: mouse PRDX2 with a HA tag (generated in house) (ligand, UniProt Q61171 1-198, looked up)
chain: MASGNAQIGKSAPDFTATAVVDGAFKEIKLSDYRGKYVVLFFYPLDFTFVCPTEIIAFSDHAEDFRKLGCEVLGVSVDSQFTHLAWINTPRKEGGLGPLNIPLLADVTKSLSQNYGVLKNDEGIAYRGLFIIDAKGVLRQITVNDLPVGRSVDEALRLVQAFQYTDEHGEVCPAGWKPGSDTIKPNVDDSKEYFSKHN
notes: as for B8
B10: human S100A8 (9876-58-050, R&D Systems) (ligand, UniProt P05109 1-93, looked up)
chain: MLTELEKALNSIIDVYHKYSLIKGNFHAVYRDDLKKLLETECPQYIRKKGADVWFKELDINTDGAVNFQEFLILVIKMGVAAHKKSHEESHKE
B11: human S100A8/A9 (8226-S8-050, R&D Systems) (ligand)
chain 1: B10 chain
chain 2: MTCKMSQLERNIETIINTFHQYSVKLGHPDTLNQGEFKELVRKDLQNFLKKENKNEKVIEHIMEDLDTNADKQLSFEEFIMLMARLTWASHEKMHEGDEGPGHHHKPGLGEGTP
notes: as for B6
B12: human S100A9 (9254-S9-050, R&D Systems) (ligand, UniProt P06702 1-114, looked up)
chain: B11 chain 2
B13: human apoptosis inhibitor of macrophage (AIM) (other)
chain: SPSGVRLVGGLHRCEGRVEVEQKGQWGTVCDDGWDIKDVAVLCRELGCGAASGTPSGILYEPPAEKEQKVLIQSVSCTGTEDTLAQCEQEEVYDCSHDEDAGASCENPESSFSPVPEGVRLADGPGHCKGRVEVKHQNQWYTVCQTGWSLRAAKVVCRQLGCGRAVLTQKRCNKHAYGRKPIWLSQMSCSGREATLQDCPSGPWGKNTCNHDEDTWVECEDPFDLRLVGGDNLCSGRLEVLHKGVWGSVCDDNWGEKEDQVVCKQLGCGKSLSPSFRDRKCYGPGVGRIWLDNVRCSGEEQSLEQCQHRFWGFHDCTHQEDVAVICSG
notes: also called human AIM; human rAIM

Columns and labels:
[1] = target: mouse HSP70-A1 (low endotoxin; ADI-ESP-502-D, Enzo) (mouse, UniProt Q61696 1-641); experiment: ELISA, DAMP coated at 2 µg/mL, AIM in solution (FIG. 4)
From the text: (§1) Therefore, AIM is considered to stably bind to DAMPs through two independent binding modes, namely, charge-based interaction and disulfide bond formation. These two binding sites are also used to bind AIM and IgM pentamer, as previously reported by the present inventors (Hiramoto et al., (2018) (the aforementioned)). […] Furthermore, IgM pentamer not bound to AIM inhibited the binding of AIM to DAMPs in a dose-dependent manner (FIG. 3G). That is, the binding to IgM pentamer functionally inactivates AIM in the binding to DAMPs. Furthermore, the present inventors evaluated under a fluorescence microscope whether the trap and uptake of PRDX1, HMGB1, and S100A9 by macrophages in vitro is inhibited in the presence of rAIM. […] It is known that somewhat larger molecules are more easily taken up by phagocytes (Aderem & Underhill, (1999). Mechanisms of Phagocytosis in Macrophages. Annu. Rev. Immunol. 17, 593-623.; Sarrias et al., (2005) (the aforementioned); Canton et al., Scavenger receptors in homeostasis and immunity. Nat. Rev. Immunol. 13, 621-634.). Therefore, induction of PRDX1 aggregation by AIM is further advantageous for PRDX1 phagocytosis.

mouse AIM 2CS mutant = target: T1, mouse AIM 2CS mutant (mouse, UniProt Q9QWK4 22-352); experiment: ELISA on coated DAMP (FIG. 3E)
T1 construct: Isolated cysteine of the SRCR2 domain replaced by serine; also called mouse 2CS mutant; 2CS AIM mutant
T1 sequence (looked up): B1 chain with C173S
Method: 96-well ELISA plates were coated with DAMPs and control proteins resolved in Bicarbonate buffer (0.1 M NaHCO₃/Na₂CO₃, pH 9.6) at 2 μg/mL unless otherwise specified O/N at 4° C. After the plates were washed with tris buffered saline-tween (TBS-T) four times, they were coated with blocking buffer (1% Casein/TBS) for 2 h at RT. After a wash with TBS-T, AIM resolved in a dilution buffer (0.2% Casein/TBS/2 mM CaCl₂) at various concentrations was added to the well and plates were incubated for 1 h at RT. After 5-times wash with TBS-T/2 mM CaCl₂, biotinylated anti-mouse or human AIM antibody (clone #35 for mouse, clone 7 for human) was added to the wells and incubated for 1 h at RT. After 4-times wash with TBS-T/2 mM CaCl₂, Streptavidin-HRP diluted in 0.2% Casein/TBS/2 mM CaCl₂ was added to the wells and incubated for 1 h at RT. After 4-times wash with TBS-T/2 mM CaCl₂, TMB was added and incubated at RT for 10-25 min. The reaction was stopped by adding 1 N H₂SO₄ and thereby the absorbance at OD 450 nm was analyzed using a multiple plate reader.

[2] = target: B1; experiment: ELISA, DAMP coated at 2 µg/mL, AIM in solution (FIG. 3A)
From the text: as §1

[3] = target: B1; experiment: immunofluorescence co-localisation on peritoneal macrophages, confocal microscope (FIG. 3H)
Method: Peritoneal macrophages isolated from AIM^{-/-} mice were plated on a Lab-Tek II chamber slide (NalgeNunk) and cultured for 2 h to let them attach to the slide. The cells were incubated with 10 μg/mL of DAMPs (mouse PRDX1-His, human PRDX1-His, human HMGB1, or mouse S100A9) with or without wild-type mouse or human rAIM (100 μg/mL) at 37° C. for 10 min. For mouse PRDX1, the mutants of 2CS or ΔSRCR3 were also used. Each ligand and AIM were immunostained with antibodies to His (for mouse and human PRDX1), HMGB1 or S100A9, followed by fluorescent-conjugated secondary antibodies. Nuclei were stained with 4′,6-diamidino-2-phenylindole (DAPI). The cells were analyzed under a florescence confocal microscope.

[4] = target: B13; experiment: ELISA, DAMP coated at 2 µg/mL, AIM in solution (FIG. 3A)
From the text: as §1

[5] = target: B1; experiment: ELISA, DAMP coated at 2 µg/mL, AIM in solution (FIG. 4)
From the text: as §1

[6] = target: B13; experiment: as above
From the text: as §1

[7] = target: human HSP70 (Endotoxin Free; SPR-117A, StressMarq) (human, UniProt P0DMV8 1-641); experiment: as above
From the text: as §1

Sequence of mouse HSP70-A1 (low endotoxin; ADI-ESP-502-D, Enzo) (Q61696 whole entry): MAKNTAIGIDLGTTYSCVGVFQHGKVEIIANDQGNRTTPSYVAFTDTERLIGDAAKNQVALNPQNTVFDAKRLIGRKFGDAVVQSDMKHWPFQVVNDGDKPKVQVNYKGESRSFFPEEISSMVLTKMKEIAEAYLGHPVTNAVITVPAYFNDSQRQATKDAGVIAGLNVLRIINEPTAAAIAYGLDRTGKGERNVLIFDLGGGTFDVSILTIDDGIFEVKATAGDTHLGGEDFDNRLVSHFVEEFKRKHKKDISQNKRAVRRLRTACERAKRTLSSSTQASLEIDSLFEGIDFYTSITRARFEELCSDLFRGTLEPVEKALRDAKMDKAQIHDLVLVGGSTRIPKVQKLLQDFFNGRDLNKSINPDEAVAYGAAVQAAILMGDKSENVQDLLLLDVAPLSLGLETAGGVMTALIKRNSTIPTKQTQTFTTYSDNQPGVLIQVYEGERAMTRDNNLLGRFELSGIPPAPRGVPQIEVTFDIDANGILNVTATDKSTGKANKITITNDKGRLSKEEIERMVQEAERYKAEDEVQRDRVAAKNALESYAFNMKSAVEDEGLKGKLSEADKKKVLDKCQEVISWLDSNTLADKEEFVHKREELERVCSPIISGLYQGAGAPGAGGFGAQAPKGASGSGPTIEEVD
Sequence of human HSP70 (Endotoxin Free; SPR-117A, StressMarq) (P0DMV8 whole entry): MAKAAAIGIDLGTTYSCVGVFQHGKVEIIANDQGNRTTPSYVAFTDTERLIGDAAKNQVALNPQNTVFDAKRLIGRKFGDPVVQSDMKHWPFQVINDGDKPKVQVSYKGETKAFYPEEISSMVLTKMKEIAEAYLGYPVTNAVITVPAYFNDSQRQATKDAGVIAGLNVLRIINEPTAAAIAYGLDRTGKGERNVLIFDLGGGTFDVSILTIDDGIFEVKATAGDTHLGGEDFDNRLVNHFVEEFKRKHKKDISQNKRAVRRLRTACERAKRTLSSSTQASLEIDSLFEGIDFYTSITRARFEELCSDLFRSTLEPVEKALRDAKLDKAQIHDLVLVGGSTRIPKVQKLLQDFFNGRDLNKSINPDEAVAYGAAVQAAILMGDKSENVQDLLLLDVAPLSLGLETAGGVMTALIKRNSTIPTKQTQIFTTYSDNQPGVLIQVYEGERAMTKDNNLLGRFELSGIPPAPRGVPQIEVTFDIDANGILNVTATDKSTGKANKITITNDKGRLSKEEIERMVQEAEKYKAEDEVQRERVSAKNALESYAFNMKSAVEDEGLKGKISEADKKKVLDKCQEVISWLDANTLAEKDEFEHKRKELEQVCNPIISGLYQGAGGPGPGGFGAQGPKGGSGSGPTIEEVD

Q: Does B1 bind [1]?
A: Result: binds

Q: What does the source list for B2?
A: binding result (mouse AIM 2CS mutant): no binding; binding result [2]: binds

Q: Does B3 bind [3]?
A: Result: binds

Q: Does B4 bind (mouse AIM 2CS mutant)?
A: Result: no binding

Q: Does B4 bind [2]?
A: Result: binds

Q: Does B5 bind (mouse AIM 2CS mutant)?
A: Result: no binding

Q: Does B5 bind [2]?
A: Result: binds

Q: Does B5 bind [4]?
A: Result: binds

Q: Does B6 bind [5]?
A: Result: binds

Q: Does B7 bind [5]?
A: Result: binds

Q: Does B8 bind [5]?
A: Result: binds

Q: Does B9 bind [5]?
A: Result: binds

Q: Does B10 bind [6]?
A: Result: binds

Q: Does B11 bind [6]?
A: Result: binds

Q: Does B12 bind [4]?
A: Result: binds

Q: Does B13 bind [7]?
A: Result: binds
